Measured values published in the supplement of paper PMC12764529.
± gives the half width of the 95% confidence interval.

Experiments:
[1] = folding stability dG unfold (combined trypsin and chymotrypsin); higher = more stable
Summary of the method: (§1)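 K50 was inferred by Bayesian fitting of sequencing counts obtained after protease digestion of designed mini-proteins. Unfolding free energy was derived by comparison with a sequence-predicted unfolded-state K50 and a shared folded-state K50, for each protease or both combined. The mini-proteins were under 80 residues, had no cysteine, were carried in a PA-tagged cDNA display construct, and were kept only if AlphaFold2 dimer inter-PAE exceeded 15.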

[2] = folding stability dG unfold from trypsin proteolysis; higher = more stable
Summary of the method: as §1

[3] = folding stability dG unfold from chymotrypsin proteolysis; higher = more stable
Summary of the method: as §1

Sequence | folding stability dG unfold [1] [kcal/mol] | folding stability dG unfold [2] [kcal/mol] | folding stability dG unfold [3] [kcal/mol]
SAGGSAGGSAGPTLTLELLFRNEDGSLYAVRVRYDLDTDKVEIEVRRLPPAEPVTVTVEDSAGGSAGGSAGG [r11_657_TrROS_Hall] | 3.7 ± 0.17 | 2.8 ± 0.12 | 4.26 ± 0.052
SAGGSAGGSAGMKTRTITVSVSPEESEEEVRERVEAELPPGSVVEVTRLPDGTVVVTVEESAGGSAGGSAGG [r17_20_JUSTAS] | 1.55 ± 0.048 | 0.401 ± 0.043 | 1.99 ± 0.035
SAGGSAGGMVIKLPLPNDLYAEIPVYSNSDGIVTARIVLYDPSTEEKVEKPFELPFEELLDLLSSAGGSAGG [r6_858_TrMRF] | 0.712 ± 0.081 | 0.328 ± 0.027 | 0.899 ± 0.054
SAGGMLTYTTEYDPRGVLTVREYDPSTSKPISTHIIELGPEPVPPPVPGFPQVTPSGELRLVEDPAGPSAGG [r13_9_JUSTAS] | -0.0536 ± 0.15 | -0.178 ± 0.12 | -0.0943 ± 0.33
SAAMLFEKKTGIKVDVSLVPPEQISQLPPSYTVTPEGDVVVVTTVTTLPLSSYPVKLPPVYDPNTLKLLSAG [r14_126_JUSTAS] | -0.0133 ± 0.11 | 0.146 ± 0.12 | -0.376 ± 0.19
SAGGSAGGSAGGAAPDDVKIEIEWDVGVMTMEMMNPGGQPHKMYMIMVSLKIEIEPNADSAGGSAGGSAGGS [r10_1212_TrROS] | 4.95 ± 0.18 | 3.74 ± 0.25 | 5.09 ± 0.18
SAGGSAGGSAMSEEERRRRAEEERRKKPPVFKITEITVERDEDGNLRVTFRLEDGSTVTIELSAGGSAGGSA [r18_423_TrROS_Hall] | 2.91 ± 0.14 | 1.89 ± 0.039 | 3.33 ± 0.088
SAGGSAGGSAGMKVEEVPETPVWRFTITRGKKTTIVEVEVPPDEPPDPAEVAAELGYELESAGGSAGGSAGG [r11_1053_JUSTAS] | 1.89 ± 0.25 | 1.84 ± 0.075 | 1.65 ± 0.18
NWYIDIDEIKEAINDAPPGDEVELPFKFYDPDDGQKFKFRVTVEVNPNGKLTSVRIQHPGSGKPHAEINLKS [r1_165_TrROS] | 0.982 ± 0.11 | 0.636 ± 0.07 | 1.25 ± 0.13
SAGGSAGGPYYIMVDIEMYNPQDGKERNFTLMIPVPPGDLPKIKEELLSAGFPIKIKNISIMPPSAGGSAGG [r6_151_TrROS] | 2.74 ± 0.18 | 2.62 ± 0.14 | 2.88 ± 0.062
SAGGSAGGKWIHINPNSYNIKIQDPGSGKEEEIQFDSPEELIDEIKKQFPGVPVEIHPNGWFKISAGGSAGG [r6_288_TrROS] | 0.521 ± 0.091 | 0.385 ± 0.022 | 0.563 ± 0.11
SAGGSAGGSMKTLTLEGESEEEAIEKVKEYFKKKGINYKLLKIEISEKPNGTKIYTIDIDTKKSAGGSAGGS [r12_924_JUSTAS] | 2.04 ± 0.2 | 1.19 ± 0.1 | 2.33 ± 0.1
SAGGMTIVEKDGKLVLKITVTVPPGTTVEELKNALKELFGVEEVKVVKIEKNENGEITITVEAVFPKSAGGS [r16_234_TrROS_Hall] | 3.03 ± 0.11 | 2.59 ± 0.12 | 3.31 ± 0.13
SAGGKTIVIELTPEEVEELLKKLLEELKKKAEENPDAKITIVITTPDGRTYTITIDLKTGKITIEELPSAGG [r13_216_TrROS_Hall] | 3.43 ± 0.1 | 2.39 ± 0.051 | 3.93 ± 0.13
SAGGSALPALAERFPDAEIEPVGDDGTSVTYRFRFPGGDYLLVTVPFLPGTTEAVVDIEWVPRDALSAGGSA [r15_547_TrMRF] | 2.35 ± 0.051 | 1.68 ± 0.051 | 2.628 ± 0.012
SAGGSAGGSWVRDADGKPIPFKIDSVETKEENNPNGNRYYEIEARFPDNGKEFKATIPADDIKSAGGSAGGS [r12_823_TrROS] | 0.248 ± 0.11 | -0.551 ± 0.26 | 0.526 ± 0.2
SPVTVTITLPNGETITLTFPAGMTAEELKAAVLAELKRLLPPGAKIEVVDIEVTEVVAPGETVTVTVRLTSA [r9_178_TrROS_Hall] | 4.16 ± 0.11 | 3.36 ± 0.13 | 4.61 ± 0.15
SMLVSVTFPLTLEPEEGDHTVRIYATAPDGSSLGEVTAPVKAVGDKVEFEVTATFPLPEGAVIERIETEPSA [r9_292_TrMRF] | 0.869 ± 0.084 | 0.681 ± 0.025 | 0.857 ± 0.12
SAGGSAMKLPKNVKITITKNKDGTVTITITYPDGKKITITMKIDKNGKLKFTKEQIKKLIKELAKKSAGGSA [r15_780_TrROS_Hall] | 2.53 ± 0.22 | 2.74 ± 0.089 | 2.52 ± 0.082
SAGGMAEEVAEAVRDFFESQGLPAEVEPLSVHPNNLVVYRFRVPGYYALVVADPDNPVVVVTVYPLPSAGGS [r8_157_TrMRF] | 3.08 ± 0.14 | 2.46 ± 0.13 | 3.45 ± 0.049
SAGGSAGGEEAPPPPVTVTVTIEVEENEDGTLTVRIEVRDEATGETRTITVTMTLEELEELAKASAGGSAGG [r6_995_TrROS_Hall] | 2.78 ± 0.22 | 2.78 ± 0.11 | 2.56 ± 0.13
